Reference: patent US7101851 (dated 2006)
Bridges are numbered along the chain shown (N, C = ends). Where no end group is shown, it is not given here.

T1: alpha subunit of the human FcεRI receptor (IgE high affinity receptor), expressed on Chinese hamster ovary … (human, UniProt P12319 26-257)
T1 construct: whole, on cells; also called CHO FcεRI+ cells; FcεRIα
T1 sequence (looked up): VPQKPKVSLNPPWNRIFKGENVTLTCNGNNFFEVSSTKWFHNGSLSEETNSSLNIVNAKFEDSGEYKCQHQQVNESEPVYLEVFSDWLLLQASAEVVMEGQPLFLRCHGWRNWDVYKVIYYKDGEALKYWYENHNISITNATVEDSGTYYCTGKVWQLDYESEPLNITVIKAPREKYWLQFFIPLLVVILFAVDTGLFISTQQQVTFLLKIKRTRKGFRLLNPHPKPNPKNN


Each binder was assayed against T1, alpha subunit of the human FcεRI … (assay: inhibition of 125I-IgE binding to CHO cells expressing human FcεRI alpha; competitor IgE).
Procedure: To determine the ability of peptides to inhibit IgE binding to FcεRI, a cell-based binding assay was used with radiolabeled IgE. Chinese hamster ovary cells expressing the alpha subunit of the human FcεRI receptor were cultured overnight in Falcon 96 well microtiter plates at a concentration of 5 ×10^4 cells per well. The following day the cells were rinsed three times with PBS and then once with F12/DMEM. Peptide stocks were reconstituted in 100 mM Hepes buffered water, pH 7.2, at a concentration of 5 mg/mL. Working concentrations of the peptide were diluted in assay buffer (see below). 75 uL of a desired concentration of peptide was added to the top row of a separate 96 well microtiter plate and serially diluted 1:3 in 50 uL of the assay buffer (F12/DMEM, 1% BSA, 0.05% NaN_3 and 0.025 mM Hepes pH 7.2). Starting concentrations ranged from 50–500 uM. Next, 50 uL of the diluted peptide was transferred to the 96 microtiter well plate containing a monolayer of CHO FcεRI+ cells. […] Cells were […]

| Binder | IC50 [nM] |
| --- | --- |
| ALCPAVCYV-NH2 (disulfide 3-7 (inferred); also: synthesized as monomer, spontaneously formed a dimer) [IGE037] | 251000 |
| ALCPAVCYV-NH2 (also: antiparallel disulfide-linked homodimer, interchain C3-C7' and C7-C3', also called antiparallel covalent dimer of IGE037) [IGE089] | 64000 |
| VKCPSLCYVGGKALCPDVCYV-NH2 (not fully specified (bridges); cysteine pairing not given here) [IGE123] | 180 |
| VVCPNMCYVGGKALCPDVCYV-NH2 (not fully specified (bridges); cysteine pairing not given here) [IGE121] | 340 |
| NGCPGWCYVGGKALCPDVCYV-NH2 (disulfide 7-15, 3-19; N-terminus assumed; SMILES CC(C)C[C@@H]1NC(=O)[C@H](C)NC(=O)[C@H](CCCCN)NC(=O)CNC(=O)CNC(=O)[C@H](C(C)C)NC(=O)[C@H](Cc2ccc(O)cc2)NC(=O)[C@@H]2CSSC[C@H](NC1=O)C(=O)N1CCC[C@H]1C(=O)N[C@@H](CC(=O)O)C(=O)N[C@@H](C(C)C)C(=O)N[C@H](C(=O)N[C@@H](Cc1ccc(O)cc1)C(=O)N[C@H](C(N)=O)C(C)C)CSSC[C@H](NC(=O)CNC(=O)[C@@H](N)CC(N)=O)C(=O)N1CCC[C@H]1C(=O)NCC(=O)N[C@@H](Cc1c[nH]c3ccccc13)C(=O)N2) [IGE119] | 1400 |
| IVCPRLCYVGGKALCPDVCYV-NH2 (not fully specified (bridges); cysteine pairing not given here) [IGE120] | 290 |
| IVCARLCYVGGKALCPDVCYV-NH2 (not fully specified (bridges); cysteine pairing not given here) [IGE127] | 13000 |
| VQCPHFCYVGGKALCPDVCYV-NH2 (not fully specified (bridges); cysteine pairing not given here) [IGE122] | 170 |
| VQCPHFCYVGGKALCPDKCYV-NH2 (cysteine pairing not given here) [IGE147] | 158 |
| VQCPHFCYVGGKALCPDVCDV-NH2 (not fully specified (bridges); cysteine pairing not given here) [IGE150] | 1230 |
| VQCPHFCYVGGKALCPDPCYV-NH2 (cysteine pairing not given here) [IGE149] | 166 |
| VQCPHFCYVGGKALCPDKCYT-NH2 (cysteine pairing not given here) [IGE148] | 94 |
| ALCPAVCYVGGKALCPDVCYV-NH2 (disulfide 7-15, 3-19; N-terminus assumed; SMILES CC(C)C[C@H](NC(=O)[C@H](C)N)C(=O)N[C@H]1CSSC[C@@H](C(=O)N[C@@H](Cc2ccc(O)cc2)C(=O)N[C@H](C(N)=O)C(C)C)NC(=O)[C@H](C(C)C)NC(=O)[C@H](CC(=O)O)NC(=O)[C@@H]2CCCN2C(=O)[C@@H]2CSSC[C@H](NC(=O)[C@H](C(C)C)NC(=O)[C@H](C)NC(=O)[C@@H]3CCCN3C1=O)C(=O)N[C@@H](Cc1ccc(O)cc1)C(=O)N[C@@H](C(C)C)C(=O)NCC(=O)NCC(=O)N[C@@H](CCCCN)C(=O)N[C@@H](C)C(=O)N[C@@H](CC(C)C)C(=O)N2) [IGE083] | 1100 |
